Target: T1, recombinant D III domain of the WNV structural E glycoprotein (West Nile virus; strain of the …, UniProt Q9Q6P4)
T1 construct: also called recombinant DIII protein; recombinant analog of D III of WNV glycoprotein E
Assay: BLI; Octet K2, NTA biosensors loaded with recombinant DIII (20 ug/mL); antibodies in solution at five concentrations from 10.4 to 166.4 nM; PBS; global fit of the 1:1 model; triplicate
Settings: both partners purified

T1 sequence (Q9Q6P4 whole entry, looked up, the tested form may be a part): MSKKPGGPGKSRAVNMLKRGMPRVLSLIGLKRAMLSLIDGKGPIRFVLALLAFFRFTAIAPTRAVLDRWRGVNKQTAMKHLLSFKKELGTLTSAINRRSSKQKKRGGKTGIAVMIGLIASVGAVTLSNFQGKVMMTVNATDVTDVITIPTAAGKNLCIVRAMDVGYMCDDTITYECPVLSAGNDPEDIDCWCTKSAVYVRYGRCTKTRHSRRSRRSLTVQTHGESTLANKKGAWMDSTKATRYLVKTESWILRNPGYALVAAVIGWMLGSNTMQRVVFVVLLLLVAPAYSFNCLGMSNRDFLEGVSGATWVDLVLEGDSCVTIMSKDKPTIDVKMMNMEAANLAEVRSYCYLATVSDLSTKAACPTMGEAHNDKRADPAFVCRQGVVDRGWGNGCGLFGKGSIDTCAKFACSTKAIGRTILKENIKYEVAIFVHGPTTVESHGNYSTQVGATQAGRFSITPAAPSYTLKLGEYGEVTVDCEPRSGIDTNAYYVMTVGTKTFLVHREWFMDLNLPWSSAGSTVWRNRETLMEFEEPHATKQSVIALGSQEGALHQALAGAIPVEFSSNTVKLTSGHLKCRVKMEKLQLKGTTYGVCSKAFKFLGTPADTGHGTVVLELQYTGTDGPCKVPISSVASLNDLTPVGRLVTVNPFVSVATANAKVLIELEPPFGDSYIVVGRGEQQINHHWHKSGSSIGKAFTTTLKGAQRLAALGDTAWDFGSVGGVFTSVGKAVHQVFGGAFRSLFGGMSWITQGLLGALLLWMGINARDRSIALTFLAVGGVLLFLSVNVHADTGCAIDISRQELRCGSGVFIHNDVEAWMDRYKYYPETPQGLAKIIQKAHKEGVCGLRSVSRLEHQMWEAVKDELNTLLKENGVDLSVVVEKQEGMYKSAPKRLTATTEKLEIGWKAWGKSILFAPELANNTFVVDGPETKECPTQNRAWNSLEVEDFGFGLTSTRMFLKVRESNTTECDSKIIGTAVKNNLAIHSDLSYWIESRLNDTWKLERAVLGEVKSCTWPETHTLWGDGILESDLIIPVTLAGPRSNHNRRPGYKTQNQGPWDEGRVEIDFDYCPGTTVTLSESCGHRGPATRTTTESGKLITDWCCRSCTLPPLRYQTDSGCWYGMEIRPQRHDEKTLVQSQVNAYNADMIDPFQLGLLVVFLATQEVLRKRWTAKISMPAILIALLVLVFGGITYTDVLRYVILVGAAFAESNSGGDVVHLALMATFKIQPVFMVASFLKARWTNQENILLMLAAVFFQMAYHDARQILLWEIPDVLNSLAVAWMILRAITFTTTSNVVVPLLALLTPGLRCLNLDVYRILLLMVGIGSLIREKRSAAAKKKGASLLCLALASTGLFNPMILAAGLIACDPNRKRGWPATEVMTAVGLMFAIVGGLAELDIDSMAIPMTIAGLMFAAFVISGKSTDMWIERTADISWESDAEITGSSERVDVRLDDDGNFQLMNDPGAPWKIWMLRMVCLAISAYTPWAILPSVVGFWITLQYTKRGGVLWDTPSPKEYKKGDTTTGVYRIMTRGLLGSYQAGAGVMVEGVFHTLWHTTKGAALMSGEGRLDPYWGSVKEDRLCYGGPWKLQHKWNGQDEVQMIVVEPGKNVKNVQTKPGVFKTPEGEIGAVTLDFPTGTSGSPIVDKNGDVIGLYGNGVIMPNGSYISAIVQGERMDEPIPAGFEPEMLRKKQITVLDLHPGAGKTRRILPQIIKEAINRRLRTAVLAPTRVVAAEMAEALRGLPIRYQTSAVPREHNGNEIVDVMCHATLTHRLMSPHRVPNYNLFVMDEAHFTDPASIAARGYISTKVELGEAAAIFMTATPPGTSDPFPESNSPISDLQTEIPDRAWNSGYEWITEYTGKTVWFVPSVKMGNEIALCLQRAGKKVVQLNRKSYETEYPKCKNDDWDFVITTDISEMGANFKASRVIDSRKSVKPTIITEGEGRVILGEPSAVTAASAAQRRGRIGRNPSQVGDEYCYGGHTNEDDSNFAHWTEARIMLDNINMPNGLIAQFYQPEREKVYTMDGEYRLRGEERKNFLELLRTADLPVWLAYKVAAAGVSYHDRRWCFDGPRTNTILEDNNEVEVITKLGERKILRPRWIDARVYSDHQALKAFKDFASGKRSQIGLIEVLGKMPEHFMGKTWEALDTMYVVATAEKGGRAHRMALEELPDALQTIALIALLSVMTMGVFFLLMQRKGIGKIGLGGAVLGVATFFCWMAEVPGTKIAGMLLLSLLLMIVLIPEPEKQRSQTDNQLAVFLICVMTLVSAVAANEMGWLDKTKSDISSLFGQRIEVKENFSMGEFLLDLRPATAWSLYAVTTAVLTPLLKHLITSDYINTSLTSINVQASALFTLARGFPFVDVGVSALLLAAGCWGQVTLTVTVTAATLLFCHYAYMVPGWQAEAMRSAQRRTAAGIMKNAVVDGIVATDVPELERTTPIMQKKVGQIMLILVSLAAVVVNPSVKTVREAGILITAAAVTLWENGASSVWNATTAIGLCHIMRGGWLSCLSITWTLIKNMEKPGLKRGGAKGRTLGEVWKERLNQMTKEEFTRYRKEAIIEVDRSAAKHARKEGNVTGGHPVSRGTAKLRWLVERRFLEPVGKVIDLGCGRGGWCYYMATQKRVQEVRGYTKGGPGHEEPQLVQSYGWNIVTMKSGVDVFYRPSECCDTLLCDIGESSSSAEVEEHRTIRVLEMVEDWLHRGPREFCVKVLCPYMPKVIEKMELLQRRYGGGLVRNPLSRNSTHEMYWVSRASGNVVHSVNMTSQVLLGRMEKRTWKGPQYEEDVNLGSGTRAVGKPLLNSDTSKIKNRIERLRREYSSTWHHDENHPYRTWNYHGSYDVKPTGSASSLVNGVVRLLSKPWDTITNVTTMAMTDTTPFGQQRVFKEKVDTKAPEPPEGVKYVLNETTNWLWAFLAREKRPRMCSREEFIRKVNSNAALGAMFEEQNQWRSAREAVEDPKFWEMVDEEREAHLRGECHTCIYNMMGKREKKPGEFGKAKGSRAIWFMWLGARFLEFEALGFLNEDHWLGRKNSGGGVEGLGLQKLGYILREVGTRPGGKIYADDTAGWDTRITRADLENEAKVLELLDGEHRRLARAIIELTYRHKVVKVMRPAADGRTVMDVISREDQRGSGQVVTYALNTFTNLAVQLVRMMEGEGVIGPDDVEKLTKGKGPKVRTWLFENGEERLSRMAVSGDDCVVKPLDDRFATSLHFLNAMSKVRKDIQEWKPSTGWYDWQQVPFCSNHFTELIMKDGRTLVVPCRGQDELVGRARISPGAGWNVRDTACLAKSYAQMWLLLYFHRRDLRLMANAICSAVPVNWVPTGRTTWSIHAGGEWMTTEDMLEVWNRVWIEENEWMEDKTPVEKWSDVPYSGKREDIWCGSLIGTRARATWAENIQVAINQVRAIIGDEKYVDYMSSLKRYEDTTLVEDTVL

B1: recombinant chimeric monoclonal antibody (mAb) 900, variant V4 (scFv-Fc, M252Y/S254T/T256E and H433K/N434F in the human IgG1 Fc) (antibody, V domains shown)
VH: EVQLQQSGAELVKPGASVKLSCKASGYIFTNYDINWVRQRPEQGLEWIGWIFPEDGRTKNNEKFKGKATLTTDKSSSTAYMQLSRLTSEDSAVYFCARGGGYGNYFDYWGQGTLVTVS
VL: DIVMTQAHKFMSTSVGDRVSITCKASQDVSTAVAWYQQKPGQSPKVLIYWASTRHTGVHDRFTGSGSGTDYTLTISSVQAEDLALYYCQQHYSNPLTFGAGTKLELK
B1 gave a Kd of roughly 2.3 nM.

From publication PMC12733864 (International Journal of Molecular Sciences, 2025)
